From US20220306750A1 (CITY OF HOPE, published 2022)
Like-named read-outs stand apart in the source and are kept apart here.

Legend:
[1] = target: T1, interleukin-1 receptor accessory protein (IL1RAP), antigen of the ELISA and phage selection (UniProt Q9NPH3 21-367, limits assumed); test: ELISA, scFv-Fc on IL1RAP
T1 sequence (looked up): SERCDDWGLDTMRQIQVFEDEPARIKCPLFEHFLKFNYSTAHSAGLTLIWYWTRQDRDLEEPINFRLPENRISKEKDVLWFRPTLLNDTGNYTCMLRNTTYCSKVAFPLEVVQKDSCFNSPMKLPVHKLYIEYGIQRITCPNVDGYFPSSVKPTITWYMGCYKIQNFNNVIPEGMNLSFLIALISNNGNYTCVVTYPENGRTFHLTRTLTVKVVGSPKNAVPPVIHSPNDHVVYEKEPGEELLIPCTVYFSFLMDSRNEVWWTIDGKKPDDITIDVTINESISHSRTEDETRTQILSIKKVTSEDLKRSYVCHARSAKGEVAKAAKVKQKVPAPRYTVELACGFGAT

[2] = target: T1, interleukin-1 receptor accessory …; test: ELISA, scFv-Fc on IL1RAP; remark: listed apart in the source
[3] = target: T2, interleukin-1 receptor accessory protein (IL1RAP) on AML target cells (human, UniProt Q9NPH3 21-570); test: cell-based or functional assay
T2 sequence (looked up): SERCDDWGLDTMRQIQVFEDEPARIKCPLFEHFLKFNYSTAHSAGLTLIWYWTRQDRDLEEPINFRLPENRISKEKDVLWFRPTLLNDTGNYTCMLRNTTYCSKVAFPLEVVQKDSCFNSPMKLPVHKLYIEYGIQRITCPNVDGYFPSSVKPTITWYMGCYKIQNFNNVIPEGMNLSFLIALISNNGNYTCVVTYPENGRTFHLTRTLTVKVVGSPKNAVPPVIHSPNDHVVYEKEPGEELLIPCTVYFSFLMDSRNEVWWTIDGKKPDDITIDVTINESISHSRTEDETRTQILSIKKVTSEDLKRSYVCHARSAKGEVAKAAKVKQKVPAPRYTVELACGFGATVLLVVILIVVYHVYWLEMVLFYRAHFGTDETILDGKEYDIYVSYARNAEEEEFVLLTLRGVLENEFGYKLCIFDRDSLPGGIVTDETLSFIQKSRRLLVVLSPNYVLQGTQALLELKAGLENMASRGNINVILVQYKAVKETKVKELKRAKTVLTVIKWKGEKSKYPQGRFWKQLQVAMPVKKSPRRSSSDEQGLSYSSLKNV

EC50 [1]: 854 nM | EC50 [2]: 85.4 µg/mL | cell lysis %-1 [3]: 27.2% | cell lysis %-2 [3]: 28.7% | cell lysis %-3 [3]: 23.7% | cell lysis %-average [3]: 26.5%
B1: anti-IL1RAP antibody clone 2E12 (Fc fusion)
VH: PGAAAGVGGGLVQPGGSLRLSCEASGFTFSRYWMHWVRQAPGKGLVWVSRIHTDGSSISYADSVKGRFTISRDNAKNTLYLQMNSLRAEDTAVYYCARDIGGGYSYGSVDYWGQGTLVTVSS
VL: QPVLTQSPSVSVAPGKTTRITCGGDNIGSKSVHWFQQKPGQAPVLVVFGGGDRPSGIPERFSGSNSGNTATLIISGVEGGDEADYYCQVWDGSTDHYIFGAGTMVTVL
notes: Tested as scFv-Fc
